Source: patent publication US20260139049A1 (PEDIATRIC IMMUNITY AND HEALTHCARE GUANGZHOU BIOTECHNOLOGY, published 2026)

Legend:
human CLDN6 [1] = molecular target: T1, human CLDN6 (human, UniProt P56747 1-220); experiment: FACS on HepG2 tumour cells; target on the cells taken as CLDN6
T1 construct: whole, on cells; four-transmembrane protein; also called claudin-6; HEK293T-CLDN6
T1 sequence (looked up): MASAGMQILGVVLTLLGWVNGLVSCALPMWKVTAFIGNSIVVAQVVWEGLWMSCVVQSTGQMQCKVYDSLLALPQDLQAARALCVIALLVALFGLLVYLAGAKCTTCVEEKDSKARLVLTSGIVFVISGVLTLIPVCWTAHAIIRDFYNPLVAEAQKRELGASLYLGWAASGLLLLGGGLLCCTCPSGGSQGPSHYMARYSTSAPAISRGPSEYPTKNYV
Method: (§1) 50 μL of an antibody to be tested was added to a 96-well plate, then 1×10⁵ cells were added to each well, and incubation was conducted at 4° C. for 1 h. Cells were washed three times with PBS. […] Finally, cells were washed three times with PBS, and signals were read using FACS. A binding capacity of the antibody to each tumor cell was analyzed based on detection data.

human CLDN6 [2] = molecular target: T1, human CLDN6; experiment: FACS on HEK293T-CLDN6 cells
human CLDN6 [3] = molecular target: T1, human CLDN6; experiment: FACS on CLDN6 cells (same value as Table 3, HEK293T-CLDN6)
human CLDN6 [4] = molecular target: T1, human CLDN6; experiment: FACS on PA-1 tumour cells; target on the cells taken as CLDN6
Method: as §1

[5] = molecular target: T2, monkey CLDN6 (Cyno CLDN6) (monkey (Cyno)); experiment: FACS on CHO-K1-Cyno CLDN6 cells
T2 construct: whole, on cells; also called CHO-K1-Cyno CLDN6

human CLDN6 [6] = molecular target: T1, human CLDN6; experiment: FACS on HepG2 tumour cells, 5 µg/mL; target on the cells taken as CLDN6
Method: as §1

human CLDN6 [7] = molecular target: T1, human CLDN6; experiment: FACS on HepG2 tumour cells; target on the cells taken as CLDN6; remark: listed apart in the source
Method: as §1

human CLDN6 [8] = molecular target: T1, human CLDN6; experiment: FACS on 293T-CLDN6 cells, 10 µg/mL
human CLDN6 [9] = molecular target: T1, human CLDN6; experiment: ratio of FACS Geom.Mean on 293T-CLDN6 over 293T-CLDN9, 10 µg/mL
Method: as §1, with “1× 10⁵” for “1×10⁵”, “Binding capacities” for “A binding capacity”, “CLDN9, CLDN3, and CLDN4 were” for “each tumor cell was”, “analyzed separately” for “analyzed”

human CLDN6 [10] = molecular target: T1, human CLDN6; experiment: FACS on HepG2 tumour cells; target on the cells taken as CLDN6; remark: listed apart in the source
Method: as §1

human CLDN6 [11] = molecular target: T1, human CLDN6; experiment: FACS on PA-1 tumour cells; target on the cells taken as CLDN6; remark: listed apart in the source
Method: as §1

human CLDN6 [12] = molecular target: T1, human CLDN6; experiment: FACS on HEK293T-CLDN6 cells; remark: listed apart in the source
Method: (§2) To detect a binding capacity of a chimeric or humanized antibody to CLDN6, a CLDN6-expressing cell line HEK293T-CLDN6 and a CLDN6-negative control cell line HEK293T were washed three times with PBS. 1×10⁵ test cells and 50 μL of an antibody solution to be tested were added to a 96-well plate, and incubated at 4° C. for 1 h. The cells were then washed three times with PBS. […] Finally, cells were washed three times with PBS, and signals were read using FACS.
(§3) An EC50 value (a concentration of an antibody that binds to half of binding sites at equilibrium) is calculated through nonlinear regression.

human CLDN6 [13] = molecular target: T1, human CLDN6; experiment: FACS on 293T-CLDN6 cells, 10 µg/mL; remark: listed apart in the source
human CLDN9 = molecular target: T3, human CLDN9 (human, UniProt O95484 1-217); experiment: FACS on 293T-CLDN9 cells, 10 µg/mL
T3 construct: whole, on cells; also called HEK293T-CLDN9
T3 sequence (looked up): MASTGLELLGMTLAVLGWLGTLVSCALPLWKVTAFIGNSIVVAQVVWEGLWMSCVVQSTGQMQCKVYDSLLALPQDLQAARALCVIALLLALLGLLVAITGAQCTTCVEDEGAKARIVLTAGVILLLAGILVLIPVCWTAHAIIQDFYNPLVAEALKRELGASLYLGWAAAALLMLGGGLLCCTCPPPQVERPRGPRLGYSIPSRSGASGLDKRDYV
Method: as §1, with “1× 10⁵” for “1×10⁵”, “Binding capacities” for “A binding capacity”, “CLDN9, CLDN3, and CLDN4 were” for “each tumor cell was”, “analyzed separately” for “analyzed”

human CLDN6 [14] = molecular target: T1, human CLDN6; experiment: FACS on HepG2 tumour cells; target on the cells taken as CLDN6; remark: listed apart in the source
Method: as §1

human CLDN6 [15] = molecular target: T1, human CLDN6; experiment: FACS on 293T-CLDN6 cells, 10 µg/mL; remark: listed apart in the source
human CLDN6 [16] = molecular target: T1, human CLDN6; experiment: FACS on PA-1 tumour cells; target on the cells taken as CLDN6; remark: listed apart in the source
Method: as §1

human CLDN6 [17] = molecular target: T1, human CLDN6; experiment: FACS on HEK293T-CLDN6 cells; remark: listed apart in the source
Method: as §2, §3

human CLDN6 [18] = molecular target: T1, human CLDN6; experiment: FACS on PA-1 tumour cells; target on the cells taken as CLDN6; remark: listed apart in the source
Method: The specific binding of a chimeric antibody to a tumor cell was detected by FACS, and an EC50 value was calculated accordingly to evaluate an inhibitory effect of the chimeric antibody on the tumor cell.
as §1

B1: IMAB027 (antibody, human IgG1, kappa, V domains shown)
VH: EVQLQQSGPELVKPGASMKISCKASGYSFTGYTMNWVKQSHGKNLEWIGLINPYNGGTIYNQKFKGKATLTVDKSSSTAYMELLSLTSEDSAVYYCARDYGFVLDYWGQGTTLTVSS
VL: IVLTQSPAIMSASPGEKVTITCSASSSVSYLHWFQQKPGTSPKLWVYSTSNLPSGVPARFGGSGSGTSYSLTISRMEAEDAATYYCQQRSIYPPWTFGGGTKLEIKR
notes: variable regions of mAb206-LCC on human IgG1 constant regions; also called benchmark antibody; control antibody
EC50 (human CLDN6 [1]): 0.242 µg/mL
EC50 (human CLDN6 [2]): 0.0469 µg/mL
EC50 (human CLDN6 [3]): 0.213 µg/mL
EC50 (human CLDN6 [4]): 0.141 µg/mL
EC50 [5]: 0.131 µg/mL
Geom.Mean (human CLDN6 [6]): 970
EC50 (human CLDN6 [7]): 0.515 µg/mL
Geom.Mean (human CLDN6 [8]): 23600
CLDN6/CLDN9 ratio (human CLDN6 [9]): 45
EC50 (human CLDN6 [10]): 0.583 µg/mL
EC50 (human CLDN6 [11]): 0.141 µg/mL
EC50 (human CLDN6 [12]): 0.282 µg/mL
Geom.Mean (human CLDN6 [13]): 44300
Geom.Mean (human CLDN9): 1810
EC50 (human CLDN6 [14]): 0.959 µg/mL
Geom.Mean (human CLDN6 [15]): 23600
EC50 (human CLDN6 [16]): 0.223 µg/mL
EC50 (human CLDN6 [17]): 0.213 µg/mL
EC50 (human CLDN6 [18]): 0.0741 µg/mL
